Here are results for three compounds from article PMC6686729, “RGD conjugated cell uptake off to on responsive NIR-AZA fluorophores: applications toward intraoperative fluorescence guided surgery” (Chemical Science, 2019).

A short description of data set [1]: pH titration of fluorescence intensity, sigmoidal plot fit (pKa). It is filed as physicochemical. From the text:
In order to display the responsive nature and full emissive potential of 2 and 3, their DMEM solutions were sequentially acidified (Fig. 4a and b). This caused a successive increase in emission intensity as acidity increased, with a maximum intensity reached at approximately pH 4. […] While it is recognized that the extracellular matrix of a solid tumour can be more acidic than normal tissue, intracellular organelles such as late endosomes and lysosomes are also acidic ranging between pH 4.5 and 5.5.[27] Encouragingly, the measured fluorescence enhancement factor (FEF) for 2 and 3 between pH 7.2 and that of 4.5 (as found in lysosomes) was 23 and 18 respectively (Fig. 4c). […]
Fig. 4 Responsive emission characteristics of 2 and 3 (5 μM) in DMEM/10% FBS solutions containing TX100. (a) Fluorescence spectra of 2 at pH ranging from 8.0 (black) to 2.0 (red); inset sigmoidal plot fit of integrated fluorescence intensity versus pH. (b) Fluorescence spectra of 3 at pH ranging from 8.0 (black) to 2.0 (red); inset sigmoidal plot fit of integrated fluorescence intensity versus pH. […]
Fig. S1. Absorption and fluorescence pH titration of 1
Fig. S1 Absorbance (left) and fluorescence (right) spectra of 1 (5 μM) in PBS buffer/TX-100 (4 mM) starting at pH 8 (grey line) to pH 2 (red line). Fluorescence excitation: 630 nm; range: 650- 900 nm; […]
(§1) Fig. S2. Absorption pH titration and fluorescence spectra of 2 […]

The nature of data set [2]: Photophysical properties (absorption, emission, FEF, quantum yield) in DMEM/10% FBS. Format: physicochemical.
Excerpt: The photophysical properties of the bio-responsive fluorophores 2 and 3 and the always-on control 10 were studied in solutions of Dulbecco's modified eagle's cell medium (DMEM) containing 10% fetal bovine serum (FBS). Absorption and emission wavelengths are listed in Table 1 and are, as would be expected for the NIR-AZA class, in the 690–730 nm range. At pH 7.4 fluorescence intensity of always-on10 was 17- and 15-fold greater than 2 and 3 respectively (Table 1). This illustrates both the emissive potential of the peptide conjugates and the ability to quench the bio-responsive derivatives in relevant biological media (Table 1, spectra and inset). […]
as §1
Fig. S2 Absorbance (left) spectra of 2 (5 μM) in DMEM (10% FBS) /TX100 (4 mM) starting at pH 8 (grey line) to pH 3 (red line). Fluorescence (right) spectra of series dilution (3 µM, 1.8 µM, 1.3 µM, 0.5 µM) in DMEM (10% FBS) /TX100 (4 mM) at pH=3. Fluorescence excitation: 630 nm; range: 650- 900 nm; slit widths: 5/5. Inset: Integrated fluorescence intensity vs. Absorbance; calculated fluorescence quantum yield Φ = 0.16. […]
Fig. S3. Absorption pH titration and fluorescence spectra of 3 […]
Fig. S3 Absorbance (left) spectra of 3 (5 μM) in DMEM (10% FBS) /TX100 (4 mM) starting at pH 8 (grey line) to pH 3 (red line). Fluorescence (right) spectra of series dilution (3.5 µM, 2.6 µM, 1.3 µM, 0.8 µM) in DMEM (10% FBS) /TX100 (4 mM) at pH=3. Fluorescence excitation: 630 nm; range: 650- 900 nm; slit widths: 5/5. Inset: Integrated fluorescence intensity vs. Absorbance; calculated fluorescence quantum yield Φ = 0.18.
Fig. S4. Absorption and fluorescence spectra of 10 at pH 7.4, 6.6, 5.6 and 3.
Fig. S4 Absorbance (left) and fluorescence (right) spectra of 10 (5 μM) in DMEM (10% FBS) /TX100 (4 mM). Fluorescence excitation: 630 nm; range: 650- 900 nm; slit widths: 5/5.

In another data set the test system is MDA-MB 231 cells. Put plainly: Live MDA-MB 231 cell NIR-fluorescence/DIC time-lapse imaging. Format: cell-based, human. The following applies: live MDA-MB 231 cells, 1–5 μM, 37 °C. As to the method: With the responsive nature of 2 and 3 established, the potential for translation of these constructs to real-time live cell imaging was investigated. In order to illustrate the imaging effect of the bio-responsive characteristics of 2 and 3 the always-on10 was also imaged as a positive control. For live MDA-MB 231 cell experiments, chamber slide seeded cells were placed in a widefield microscope surrounded by an incubator to maintain the temperature at 37 °C and CO2 at 5%, following which an imaging field of view containing viable cells was chosen. The cells were treated with either 2, 3 or 10 (1–5 μM) and time-lapse NIR-fluorescence and differential interference contrast (DIC) images were acquired over 120 min. […] As expected, the […] morphology of the cell line is distinguishable by its membrane filopodia projections which is characteristic of its metastatic invasive phenotype (Movie S1 ^†). After 60 min incubation, both cell membrane and intracellular vesicle staining of the cytoplasm could be observed, both of which persisted at 120 min (Fig. 5b and c). […]
Fluorescence and DIC images were acquired on an Olympus IX73 epi-fluorescent microscope fitted with an Andor iXon Ultra 888 EMCCD and controlled by MetaMorph (v7.8). Fluorescence illumination was provided by a Lumencor Spectra X light engine containing a solid-state light source. […]

Data set [3] deals with MDA-MB 231 subcutaneous tumour. The data set is described as follows: In vivo tumour fluorescence imaging, tumour-to-background ratio (TBR) over 96 h. Also on record: species or system Balb/C nu/nu mice. As to conditions: 2 mg kg–1, n = 4 (n = 2 for 10). As to the method:
Each fluorophore was subjected to in vivo analysis using a standard dosing set at 2 mg kg^–1 delivered by i.v. tail vein injection. Post injection, images were acquired initially at regular intervals between 10 min and 9 h and thereafter less frequently at 24, 48 and 96 h. The method used for image analysis was consistent across all experiments with TBR values calculated by measuring tumour ROI fluorescence against an average of three equally sized background ROI regions, two of which were close to and one distant from the tumour (Fig. S11 ^†). […] As such, we adopted this value as a point of reference to compare result from different fluorophores and different time points for individual fluorophores. […]
All in vivo experiments were conducted in University College Dublin, Ireland in compliance with relevant laws, and their institutional guidelines for animal protocols and the guidelines issued b y the Ethical Committee of University College Dublin and under license from the Health Products Regulatory Authority (HPRA), Dublin, Ireland which approved the experiments.
All in vivo work was carried out in the biomedical facility, University College Dublin (UCD) . MDA-MB-231, a human breast adenocarcinoma cell line, was obtained from Caliper Life Sciences. Cells were maintained as a mono-layer culture in Minimum Essential Medium containing 10% (v/v) fetal bovine serum and supplemented with 1% (v/v) L–glutamine, 50 U/mL penicillin, […] streptomycin, 1% (v/v) sodium pyruvate and 1% (v/v) non-essential amino acids. All cells were maintained in 5% CO2 (v/v) and 21% O2 (v/v) at 37°C.
Balb/C nu/nu mice (Harlan) were housed in individually ventilated cages in temperature and humidity-controlled rooms with a 12 hours light dark cycle. 2-5 Million MDA-MB 231 cells in 100 μL of a DPBS:Matrigel (50:50) solution were injected subcutaneously behind the fore limb of the 5-week-old mice using a 25-g needle. Tumors reached an average diameter of 6 mm prior to imaging […]
images taken at early time points with less frequent imaging thereafter. Images were taken using the settings of excitation 675 nm (30 nm band pass filter) and emission 720 nm (20 nm band pass filter) narrow band pass filters and were analyzed using Living Image Software v4.7.2 (Caliper LS). The tumor-to-background ratio (TBR) was calculated by using the measured fluorescence signal in the ROIs of tumor target and average background. […]
The fluorescence intensity of the animal was measured and normalized to photons per second per centimeter squared per steradian per micro-Watt per centimeter squared [(p/sec/cm2/sr) /(μW/cm2)].
Mice were injected via tail vein (2 mg/kg) as follows; [n = 4 for 1 (3.7 nmol)], [n = 4 for 2 (13.2 nmol)], [n = 4 for 3 (10.5 nmol)], [n = 2 for 10 (10.1 nmol)], anesthetized, and imaged at various time points post injection. All fluorescence images were acquired with two second exposure (f/stop = 2).
Color scale was adjusted and kept same for each experiment to show good contrast of target tumor region to background over time. The fluorescence intensity was not affected by color scale adjusting. […]
For RGD competitive binding study, mice injected with 2 (13.2 nmol) with or without pre-injection with RDG 5 (89.5 nmol) and were imaged at 10 min interval for 3 hours, and then immediately euthanized by inhalation of carbon dioxide. For quantitative comparison, regions of interests (ROIs) […]

Compound `N=C(N)NCCC[C@@H]1NC(=O)[C@H](CCCCNC(=O)COCCOCCNC(=O)COCCOCCNC(=O)COc2ccc(-c3cc(-c4ccccc4)c4n3[B-](F)(F)[N+]3=C(c5ccc(O)c([N+](=O)[O-])c5)C=C(c5ccccc5)C3=N4)cc2)NC(=O)[C@@H](Cc2ccccc2)NC(=O)[C@H](CC(=O)O)NC(=O)CNC1=O` [compound 2] gave a pKa in data set [1] of 4.9.

Turning to “cCRGDKGPDC (disulfide) [compound 10, iRGD conjugated always-on NIR-AZA control with alkylsulfonic acid group, from fluorochrome 9 and peptide 8]”, the “absorption or emission spectral changes between pH 7.2 and 4.5” value in data set [2] (5 μM in DMEM (10% FBS)/TX100 (4 mM)) is on record as “no absorption or emission spectral changes”. In addition, the “λ max flu (nm)” value in data set [2] (DMEM/10% FBS with 4 mM TX-100, 5 μM) worked out at 733 nm. For the same compound, the “FEF pH 7.4/4.5 (fluorescence enhancement factor)” value in data set [2] (DMEM/10% FBS with 4 mM TX-100, 5 μM, pH 7.4 vs 4.5) stood at 1.0. In data set [2] (DMEM/10% FBS with 4 mM TX-100, pH 4.5), the “λ max abs (nm) pH 4.5” value is recorded as 703 nm. In addition, the “λ max abs (nm) pH 7.2” value in data set [2] (DMEM/10% FBS with 4 mM TX-100, pH 7.2) worked out at 705 nm. Moreover, in data set [2] (pH 7.4, DMEM/10% FBS, 5 μM), the “fluorescence intensity of always-on 10 relative to 2” value came out at 17 fold. The “fluorescence intensity of always-on 10 relative to 3” value in data set [2] (pH 7.4, DMEM/10% FBS, 5 μM) was 15 fold. In the data set with MDA-MB 231 cells (5% CO2, time-lapse over 120 min), the “cell staining pattern over 120 min” value was “first showed plasma membrane before internal organelle staining”. The “cell staining in the first 15 min of incubation” value in the data set with MDA-MB 231 cells (5% CO2, widefield NIR-fluorescence and DIC) is “fluorescence specific to the plasma membrane”. Besides, the TBR entry in data set [3] (10 to 60 min (first 60 min) post i.v. tail vein injection) is on record as “below 1.3”; in data set [3] (3 h post i.v. injection), 1.5; in data set [3] (6 h post i.v. injection), 1.9; in data set [3] (24 h post i.v. injection) it was “above 2”; in data set [3] (48 h post i.v. injection) it was 2.

`CC(=O)N[C@@H](CSC1CC(=O)N(CCC(=O)NCCOc2ccc(-c3cc(-c4ccccc4)c4n3[B-](F)(F)[N+]3=C(c5ccc(O)c([N+](=O)[O-])c5)C=C(c5ccccc5)C3=N4)cc2)C1=O)C(=O)NCCCC[C@@H]1NC(=O)[C@H](CC(=O)O)NC(=O)CNC(=O)[C@H](CCCNC(=N)N)NC(=O)[C@@H](NC(C)=O)CSSC[C@@H](C(N)=O)NC(=O)[C@H](CC(=O)O)NC(=O)[C@@H]2CCCN2C(=O)CNC1=O` (stereo partly shown) [compound 3] gave a pKa in data set [1] of 4.9.
